Measured values published in US20170173105A1, “AUTOASSEMBLING PEPTIDES FOR THE TREATMENT OF PULMONARY LEAKAGE” (3-D MATRIX, LTD., priority 2014, published 2017).

Key:
[1] = Rheological properties of peptide solutions and hydrogels after salt ionic strength adjustment; format: physicochemical; conditions: for appearance of peptide solutions with salt and pH adjustment: 0.9% NaCl (ionic strength: 0.15 M) at pH 3.4 adjusted with NaOH; for rheological property of hydrogels after DMEM treatment at various ionic strengths: 1% hydrogels, DMEM treatment for 10 min; for rheological property of 1% solutions at various salt ionic strengths: 1% solution, storage modulus at 1 rad/sec; for rheological property of solutions after ionic strength adjustment with NaCl: NaCl to 0.7 M (PuraMatrix®), 0.2 M (KLD12) or 0.02 M (IEIK13), 1% solutions
Description: Based on the visual observation of the effect of salt ionic strength on the properties of the peptide solutions, the effect on the rheological properties of the peptide solutions after adjusting their ionic strength level with NaCl to 0.7 M (PuraMatrix®), 0.2 M (KLD12) or 0.02 M (IEIK13), which is closely below the critical ionic strength at which each peptide becomes cloudy, was evaluated. If the ionic strength levels with NaCl of peptide solutions are higher than 0.9 M (PuraMatrix®), 0.3 M (KLD12) or 0.03 M (IEIK13), the peptide solution begin phase separation becoming cloudy and weak. The rheological property of PuraMatrix®, KLD12 and IEIK13 solutions was higher after adjusting their ionic strength level with NaCl to 0.7 M (PuraMatrix®), 0.2 M (KLD12) or 0.02 M (IEIK13), The results are shown in FIG. 10 for KLD12 1%, FIG. 11 for IEIK13 1%, and FIG. 12 for PuraMatrix® 1%, respectively. Frequency sweep tests were performed from 1 rad/s to 10 rad/s at 1 Pa.
Based on the results of the effect on the rheological properties of the peptide solutions after adjusting their ionic strength level with NaCl to 0.7 M (PuraMatrix®), 0.2 M (KLD12) or 0.02 M (IEIK13), the effect on the rheological properties of the peptide solution at various salt ionic strengths was evaluated. […] The results are shown in FIG. 13 for PuraMatrix® 1% solution and in FIG. 14 for IEIK13 1% solution. Frequency sweep tests were performed from 1 rad/sec to 10 rad/sec at 1 Pa and the storage modulus at 1 rad/sec was selected for data.
Based on the results of the effect on the rheological properties of the peptide solutions after adjusting their ionic strength levels, the effect on the rheological properties of the peptide hydrogels after DMEM treatment for 10 min was evaluated. […] The results are shown in FIG. 15 for PuraMatrix® 1% hydrogels and in FIG. 16 for IEIK13 1% hydrogels, both after DMEM treatment for 10 min Frequency sweep tests were performed from 1 rad/sec to 10 rad/sec at 1 Pa and the storage modulus at 1 rad/sec was selected for data.
Based on the results of the effect on the rheological properties of the peptide solutions and hydrogels after adjusting their ionic strength levels with NaCl, the effect of various salts (KCl, MgCl2, and CaCl2) was also evaluated. The rheological property of PuraMatrix® solutions increases with ionic strength adjustment at 0.15 M of all the salts. Increases of the rheological property of PuraMatrix® solutions with various salts were not predominantly different. However, increases of the rheological property of PuraMatrix® solutions may vary depending on the salting out constant, K of each salt. Constant K is a constant in Cohen's equation: log S=B−KI, where S is solubility, B is idealized solubility, K is salting out constant, and I is ionic strength. With a higher value of constant K and ionic strength of salts, solubility of the peptide may decrease resulting in strong peptide self-assembly with increased hydrophobic effect and higher rheological properties of the peptide solution. The constant K of NaCl may be higher than the other salts. […] The results are shown in FIG. 17 for PuraMatrix® 1% solution before DMEM treatment, and in FIG. 18 for PuraMatrix® 1% hydrogels after DMEM treatment for 10 min.
In accordance with one or more embodiments, IEIK13, KLD12, and PuraMatrix® may be dissolved both in salt buffer such as NaCl and at an elevated pH level adjusted with alkali salt buffer such as NaOH to keep their salt ionic strength under their critical salt points as well as their pH level to about 2.5˜4.0, so that they may have stiffer properties. With respect to PuraMatrix®, […] and IEIK13, the peptide solutions are still clear with 0.9% NaCl (ionic strength: 0.15 M) at pH 3.4 adjusted with NaOH. […] The effect of salt ionic strength and pH adjustment on the rheological properties of PuraMatrix® 2.5% solution are shown in FIG. 20. […]

[2] = Rheological comparison of peptide hydrogels mixed with Ringer's Solution or indigo carmine; format: physicochemical
Source text: The two gels were: (1) a combination of the self-assembling peptide with a well-known cation/anion solution, Ringer's Solution (pH 5.3), used in the medical field and (2) a combination of the self-assembling peptide with a well-known contrast agent, indigo carmine, which is a dye solution containing sulfate (anion) and sodium (cation) ions. Indigo carmine contains indigoindisulfonate sodium (C16H8N2Na2O8S2), water, and sodium citrate […] for pH adjustment. Using indigo carmine powder, a 1% solution was prepared for use in experimentation. This corresponds to 10 mg/1 ml of water. The concentration of indigo carmine solution used in experimentation was 0.00585% in water.
Indigo carmine powder was used to prepare a 1% solution in deionized (DI) water. Using IEIK13 powder, a 2 percent solution was prepared using DI water. The amount of IEIK was weighed out and the appropriate amount of DI water was added gently down the side of the container. Mixing was accomplished by vortexing for about 30 seconds, and then sonicating for 30 seconds. The solution was then centrifuged for about 10 to about 15 minutes at […]. The solution may undergo further vortexing and centrifuging until the solution is clear and without bubbles.
To obtain a final concentration of 0.00585% indigo carmine, the necessary amount of 1% IC is added to the appropriate amount of DI water to dilute 2% IEIK to 1.5% IEIK. […]

In the case of “Arg-Ala-Asp-Ala-Arg-Ala-Asp-Ala-Arg-Ala-Asp-Ala-Arg-Ala-Asp-Ala [PuraMatrix ®]”, the “rheological property of solutions with NaCl compared with KCl and CaCl2” value ([1]; 0.15 M ionic strength, 1%) is reported as “slightly higher”, the “appearance of peptide solutions with salt and pH adjustment” value (from here on “appearance of peptide solutions”) [1] is reported as “still clear” and the “rheological property of hydrogels after DMEM treatment at various ionic strengths” value [1] is reported as “increased with ionic strength adjustment up to 0.7 M, while decreases above 0.7 M”. For the same substance, the “rheological property of 1% solutions at various salt ionic strengths” value [1] was “increases with ionic strength adjustment up to 0.7 M, while decreases above 0.7 M”, the “rheological property with salt and pH adjustment” value ([1]; 2.5% solution, 0.9% NaCl (0.15 M) at pH 3.4 vs control and only NaCl 0.9%) was “stiffer” and the “ionic strength level with NaCl at which the peptide solution begins phase separation becoming cloudy and weak” value (“ionic strength level with NaCl” below) [1] was “higher than 0.9 M”. The “rheological property of solutions after ionic strength adjustment with NaCl” value [1] was “higher”, the “gelation with DMEM treatment” value ([1]; above 0.9 M of NaCl ionic strength) was “no gelation” and the “rheological property of solutions with various salts” value ([1]; ionic strength adjustment at 0.15 M of all the salts (NaCl, KCl, MgCl2, CaCl2), 1%) was “increases”. For the same substance, the “properties of tailored hydrogel” value ([2]; mixed with Ringer's Solution (pH 5.3)) was “stiffer gel with faster gelation kinetics that maintains reversibility”.
In the case of “Ile-Glu-Ile-Lys-Ile-Glu-Ile-Lys-Ile-Glu-Ile-Lys-Ile [IEIK13]”, the “appearance of peptide solutions” value [1] is reported as “still clear”, the “rheological property of hydrogels after DMEM treatment at various ionic strengths” value [1] is reported as “did not significantly change with ionic strength adjustment up to 0.025 M, while decreases above 0.03 M” and the “rheological property of 1% solutions at various salt ionic strengths” value [1] is reported as “increases with ionic strength adjustment up to 0.03 M, while decreases above 0.03 M”. For the same substance, the “ionic strength level with NaCl” value [1] was greater than 0.03 M, the “rheological property of solutions after ionic strength adjustment with NaCl” value [1] was “higher” and the “properties of tailored hydrogel” value ([2]; 1.5% IEIK mixed with 0.00585% indigo carmine) was “maintains stiffness, reversibility, and gelation kinetics”.
For “Lys-Leu-Asp-Leu-Lys-Leu-Asp-Leu-Lys-Leu-Asp-Leu (Ac-KLDLKLDLKLDL-NH2) [KLD12]”, the “appearance of peptide solutions” value [1] was “still clear”, the “ionic strength level with NaCl” value [1] was greater than 0.3 M and the “rheological property of solutions after ionic strength adjustment with NaCl” value [1] was “higher”.
